What is called kon is a measure of how fast the partners come together. A word on the stoichiometry N: it is the number of molecules, sites or subunits per partner or assembly. The koff is the rate constant with which the complex falls apart. High values mean fast dissociation, low ones slow dissociation.

Series [1] addresses Taxol-stabilized microtubules, digoxigenin- and HyLite-647-labeled, P02550;P02554. Kind of series: single-molecule imaging of MCAK-GFP on microtubules. As to conditions: 32 mM K-PIPES, parent: 6.14e-6.
Series [2] concerns the molecule itself. Kind of series: cross-linking; BS3 on MCAK alone: 10 µg MCAK with 20 µg BS3 in 10 mM HEPES pH 7, 200 mM potassium acetate pH 7.6, on ice 1 h; SDS-PAGE, band cut out, mass spectrometry.
In series [3] the target is Taxol-stabilized microtubules, digoxigenin- and HyLite-647-labeled (UniProt P02550 1-451; P02554 1-445, 8% of the tubulin digoxigenin-labeled, 3.5% labeled with HyLite-647; chain and residues not stated | 8% of the tubulin digoxigenin-labeled, 3.5% labeled with HyLite-647; chain and residues not stated). Kind of series: single-molecule TIRF microscopy (residence times); microtubules held on the coverslip by anti-DIG antibody; MCAK at 5-100 pM in MRB80 (80 mM K-PIPES pH 6.9, 1 mM EGTA, 4 mM MgCl2) with 1 mM ATP, κ-casein, 40 µM taxol; 23°C; off-rate = 1/τ of a single exponential fit. Conditions: both partners purified.
Taxol-stabilized microtubules, digoxigenin- and HyLite-647-labeled, sequence (P02550 whole entry, chain 1 of 2): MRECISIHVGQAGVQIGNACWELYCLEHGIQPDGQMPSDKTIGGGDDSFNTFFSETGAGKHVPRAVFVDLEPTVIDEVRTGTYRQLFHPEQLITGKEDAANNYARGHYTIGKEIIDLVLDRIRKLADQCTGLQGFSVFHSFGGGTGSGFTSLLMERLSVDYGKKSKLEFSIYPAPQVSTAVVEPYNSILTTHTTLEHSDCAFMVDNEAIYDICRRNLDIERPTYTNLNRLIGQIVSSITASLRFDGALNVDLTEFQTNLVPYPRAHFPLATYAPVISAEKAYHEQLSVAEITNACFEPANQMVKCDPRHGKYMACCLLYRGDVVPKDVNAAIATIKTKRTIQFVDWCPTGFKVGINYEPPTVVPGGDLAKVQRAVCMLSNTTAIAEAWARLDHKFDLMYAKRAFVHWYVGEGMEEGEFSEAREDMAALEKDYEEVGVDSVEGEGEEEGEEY
Taxol-stabilized microtubules, digoxigenin- and HyLite-647-labeled, sequence (P02554 whole entry, chain 2 of 2): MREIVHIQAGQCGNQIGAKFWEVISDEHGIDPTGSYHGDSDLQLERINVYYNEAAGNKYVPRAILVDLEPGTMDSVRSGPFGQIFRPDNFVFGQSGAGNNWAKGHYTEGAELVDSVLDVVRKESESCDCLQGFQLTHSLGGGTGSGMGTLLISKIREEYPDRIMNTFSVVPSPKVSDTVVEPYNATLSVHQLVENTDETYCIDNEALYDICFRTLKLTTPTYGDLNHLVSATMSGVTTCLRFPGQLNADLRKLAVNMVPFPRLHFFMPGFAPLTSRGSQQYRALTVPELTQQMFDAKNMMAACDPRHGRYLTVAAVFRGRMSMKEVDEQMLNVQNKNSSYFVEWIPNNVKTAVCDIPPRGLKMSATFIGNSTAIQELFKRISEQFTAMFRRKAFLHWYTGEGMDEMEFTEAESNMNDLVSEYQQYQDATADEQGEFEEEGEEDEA

In the case of “MCAK-GFP (from UniProt Q99661) S166E; S192E”, in series [1] (n = 280), the kon was 6720 M⁻¹ s⁻¹. Consider “MCAK-GFP (from UniProt Q99661) S95E; S109E; S111E; S115E; S166E; S192E”, for which the kon in series [1] (n = 439) was 11000 M⁻¹ s⁻¹.

B1: full-length human MCAK (natural protein, UniProt Q99661 1-725, looked up)
chain: MAMDSSLQARLFPGLAIKIQRSNGLIHSANVRTVNLEKSCVSVEWAEGGATKGKEIDFDDVAAINPELLQLLPLHPKDNLPLQENVTIQKQKRRSVNSKIPAPKESLRSRSTRMSTVSELRITAQENDMEVELPAAANSRKQFSVPPAPTRPSCPAVAEIPLRMVSEEMEEQVHSIRGSSSANPVNSVRRKSCLVKEVEKMKNKREEKKAQNSEMRMKRAQEYDSSFPNWEFARMIKEFRATLECHPLTMTDPIEEHRICVCVRKRPLNKQELAKKEIDVISIPSKCLLLVHEPKLKVDLTKYLENQAFCFDFAFDETASNEVVYRFTARPLVQTIFEGGKATCFAYGQTGSGKTHTMGGDLSGKAQNASKGIYAMASRDVFLLKNQPCYRKLGLEVYVTFFEIYNGKLFDLLNKKAKLRVLEDGKQQVQVVGLQEHLVNSADDVIKMIDMGSACRTSGQTFANSNSSRSHACFQIILRAKGRMHGKFSLVDLAGNERGADTSSADRQTRMEGAEINKSLLALKECIRALGQNKAHTPFRESKLTQVLRDSFIGENSRTCMIATISPGISSCEYTLNTLRYADRVKELSPHSGPSGEQLIQMETEEMEACSNGALIPGNLSKEEEELSSQMSSFNEAMTQIRELEEKAMEELKEIIQQGPDWLELSEMTEQPDYDLETFVNKAESALAQQAKHFSALRDVIKALRLAMQLEEQASRQISSKKRPQ
notes: MCAK (Kif2C), human, full length; also called Kif2C; kinesin-13; source: Sf9 insect cells (pFastBac), purified
For B1, the “stoichiometry N” value in series [2] is 2.

B2: MCAKS6E-GFP (natural protein, human, UniProt Q99661 1-725, looked up)
chain: MAMDSSLQARLFPGLAIKIQRSNGLIHSANVRTVNLEKSCVSVEWAEGGATKGKEIDFDDVAAINPELLQLLPLHPKDNLPLQENVTIQKQKRREVNSKIPAPKESLRERETRMETVSELRITAQENDMEVELPAAANSRKQFSVPPAPTRPSCPAVAEIPLRMVEEEMEEQVHSIRGSSSANPVNSVRRKECLVKEVEKMKNKREEKKAQNSEMRMKRAQEYDSSFPNWEFARMIKEFRATLECHPLTMTDPIEEHRICVCVRKRPLNKQELAKKEIDVISIPSKCLLLVHEPKLKVDLTKYLENQAFCFDFAFDETASNEVVYRFTARPLVQTIFEGGKATCFAYGQTGSGKTHTMGGDLSGKAQNASKGIYAMASRDVFLLKNQPCYRKLGLEVYVTFFEIYNGKLFDLLNKKAKLRVLEDGKQQVQVVGLQEHLVNSADDVIKMIDMGSACRTSGQTFANSNSSRSHACFQIILRAKGRMHGKFSLVDLAGNERGADTSSADRQTRMEGAEINKSLLALKECIRALGQNKAHTPFRESKLTQVLRDSFIGENSRTCMIATISPGISSCEYTLNTLRYADRVKELSPHSGPSGEQLIQMETEEMEACSNGALIPGNLSKEEEELSSQMSSFNEAMTQIRELEEKAMEELKEIIQQGPDWLELSEMTEQPDYDLETFVNKAESALAQQAKHFSALRDVIKALRLAMQLEEQASRQISSKKRPQ
notes: MCAK (Kif2C), human, full length, Aurora B phosphomimetic for six serines in the N-terminus and neck; Site-directed mutagenesis of MCAK-GFP; source: Sf9 insect cells (pFastBac), purified; not shown: GFP, C-terminal, kept
As to B2, in series [3], the koff came to 25.8 s⁻¹.

B3: Aurora B-phosphorylated MCAK-GFP (natural protein, human, UniProt Q99661 1-725, looked up)
chain: MAMDSSLQARLFPGLAIKIQRSNGLIHSANVRTVNLEKSCVSVEWAEGGATKGKEIDFDDVAAINPELLQLLPLHPKDNLPLQENVTIQKQKRRSVNSKIPAPKESLRSRSTRMSTVSELRITAQENDMEVELPAAANSRKQFSVPPAPTRPSCPAVAEIPLRMVSEEMEEQVHSIRGSSSANPVNSVRRKSCLVKEVEKMKNKREEKKAQNSEMRMKRAQEYDSSFPNWEFARMIKEFRATLECHPLTMTDPIEEHRICVCVRKRPLNKQELAKKEIDVISIPSKCLLLVHEPKLKVDLTKYLENQAFCFDFAFDETASNEVVYRFTARPLVQTIFEGGKATCFAYGQTGSGKTHTMGGDLSGKAQNASKGIYAMASRDVFLLKNQPCYRKLGLEVYVTFFEIYNGKLFDLLNKKAKLRVLEDGKQQVQVVGLQEHLVNSADDVIKMIDMGSACRTSGQTFANSNSSRSHACFQIILRAKGRMHGKFSLVDLAGNERGADTSSADRQTRMEGAEINKSLLALKECIRALGQNKAHTPFRESKLTQVLRDSFIGENSRTCMIATISPGISSCEYTLNTLRYADRVKELSPHSGPSGEQLIQMETEEMEACSNGALIPGNLSKEEEELSSQMSSFNEAMTQIRELEEKAMEELKEIIQQGPDWLELSEMTEQPDYDLETFVNKAESALAQQAKHFSALRDVIKALRLAMQLEEQASRQISSKKRPQ
modifications: phosphorylated in vitro with Aurora B kinase; the sites modified in this sample are not stated
notes: MCAK (Kif2C), human, full length; Phosphorylation protocol is in Welburn et al., 2010; source: Sf9 insect cells (pFastBac), purified, phosphorylated in vitro with Aurora B kinase; not shown: GFP, C-terminal, kept
Molecule B3 yielded a koff in series [3] of 23.4 s⁻¹.

B4: MCAKS2E-GFP (natural protein, human, UniProt Q99661 1-725, looked up)
chain: MAMDSSLQARLFPGLAIKIQRSNGLIHSANVRTVNLEKSCVSVEWAEGGATKGKEIDFDDVAAINPELLQLLPLHPKDNLPLQENVTIQKQKRRSVNSKIPAPKESLRSRSTRMSTVSELRITAQENDMEVELPAAANSRKQFSVPPAPTRPSCPAVAEIPLRMVEEEMEEQVHSIRGSSSANPVNSVRRKECLVKEVEKMKNKREEKKAQNSEMRMKRAQEYDSSFPNWEFARMIKEFRATLECHPLTMTDPIEEHRICVCVRKRPLNKQELAKKEIDVISIPSKCLLLVHEPKLKVDLTKYLENQAFCFDFAFDETASNEVVYRFTARPLVQTIFEGGKATCFAYGQTGSGKTHTMGGDLSGKAQNASKGIYAMASRDVFLLKNQPCYRKLGLEVYVTFFEIYNGKLFDLLNKKAKLRVLEDGKQQVQVVGLQEHLVNSADDVIKMIDMGSACRTSGQTFANSNSSRSHACFQIILRAKGRMHGKFSLVDLAGNERGADTSSADRQTRMEGAEINKSLLALKECIRALGQNKAHTPFRESKLTQVLRDSFIGENSRTCMIATISPGISSCEYTLNTLRYADRVKELSPHSGPSGEQLIQMETEEMEACSNGALIPGNLSKEEEELSSQMSSFNEAMTQIRELEEKAMEELKEIIQQGPDWLELSEMTEQPDYDLETFVNKAESALAQQAKHFSALRDVIKALRLAMQLEEQASRQISSKKRPQ
notes: MCAK (Kif2C), human, full length, phosphomimetic in the neck region (Ser192 and Ser166 replaced by glutamate); Site-directed mutagenesis of MCAK-GFP; source: Sf9 insect cells (pFastBac), purified; not shown: GFP, C-terminal, kept
In series [3], B4 returned a koff of 3.2 s⁻¹.

B5: MCAK-GFP (natural protein, human, UniProt Q99661 1-725, looked up)
chain: MAMDSSLQARLFPGLAIKIQRSNGLIHSANVRTVNLEKSCVSVEWAEGGATKGKEIDFDDVAAINPELLQLLPLHPKDNLPLQENVTIQKQKRRSVNSKIPAPKESLRSRSTRMSTVSELRITAQENDMEVELPAAANSRKQFSVPPAPTRPSCPAVAEIPLRMVSEEMEEQVHSIRGSSSANPVNSVRRKSCLVKEVEKMKNKREEKKAQNSEMRMKRAQEYDSSFPNWEFARMIKEFRATLECHPLTMTDPIEEHRICVCVRKRPLNKQELAKKEIDVISIPSKCLLLVHEPKLKVDLTKYLENQAFCFDFAFDETASNEVVYRFTARPLVQTIFEGGKATCFAYGQTGSGKTHTMGGDLSGKAQNASKGIYAMASRDVFLLKNQPCYRKLGLEVYVTFFEIYNGKLFDLLNKKAKLRVLEDGKQQVQVVGLQEHLVNSADDVIKMIDMGSACRTSGQTFANSNSSRSHACFQIILRAKGRMHGKFSLVDLAGNERGADTSSADRQTRMEGAEINKSLLALKECIRALGQNKAHTPFRESKLTQVLRDSFIGENSRTCMIATISPGISSCEYTLNTLRYADRVKELSPHSGPSGEQLIQMETEEMEACSNGALIPGNLSKEEEELSSQMSSFNEAMTQIRELEEKAMEELKEIIQQGPDWLELSEMTEQPDYDLETFVNKAESALAQQAKHFSALRDVIKALRLAMQLEEQASRQISSKKRPQ
notes: MCAK (Kif2C), human, full length; also called GFP-tagged MCAK; source: Sf9 insect cells (pFastBac), purified; not shown: GFP, C-terminal, kept
In series [3], B5 came in with a koff of 1.6 s⁻¹.

These data come from PMC6398471, “The depolymerase activity of MCAK shows a graded response to Aurora B kinase phosphorylation through allosteric regulation” (Journal of Cell Science, 2019).
